For the test, the target named is T1, Linear … (SEQ ID NO: 15) conjugated to BSA.
T1 sequence (peptide, conjugated to BSA): CGGGKLDFG
In words: indirect ELISA, hybridoma supernatant on linear peptide-BSA.

Drawing on patent publication US20220218805A1, this text covers OD for two molecules.

B1: Ab29 (clone 12D11) (antibody, V domains shown)
VH: QIQLVQSGPELKKPGETVKISCKASGYTFTNYGMNWVKQAPGKGLKWMGWINTYSGEPTYVDDFKGRFAFSLETSASTAYLQINNLKNEDMATYFCARSPGAYYTLDYWGQGTSVTVSS
VL: DIVMSQSPSSLAVSAGEKVTMSCKSSQSLLNSRTRKNYLAWYQQKPGQSPKLLIYWASTRESGVPDRFTGSGSGTDFTLTISSVQAEDLAVYYCKQSYNLYTFGGGTKLEIK
Turning to B1, the OD was found to be 0.075 OD.

B2: Ab21 (clone 2C6) (antibody, V domains shown)
VH: EVQLQQSGAELVKPGASVKLSCTASGFNIKDTHMHWVKQRPEQGLEWIGKIDPSNGNTQYDPKFQGKATITADTSSNTAYLQLSSLTSEDTAVYYCATGFAYWGQGTLVTVSA
VL: DIQMTQSPASLSASVGETVTITCRASGNIHNYLAWYQQKQGKSPQLLVYNAKTLADGVPSRFSGSGSGTQYSLKINSLQPEDFGSYYCQHFWYTPWTFGGGTKLEIK
Take B2: the OD came to 0.107 OD.
